According to patent US20260242495A1 (PROMETHEUS BIOSCIENCES, published 2026):
Where “and” joins values, the source holds several entries; their conditions need not be identical. Equal entries are not always repeated.

Target: T1, cynomolgus monkey TL1A (cynomolgus monkey, UniProt G7PRK8 72-251)
T1 sequence: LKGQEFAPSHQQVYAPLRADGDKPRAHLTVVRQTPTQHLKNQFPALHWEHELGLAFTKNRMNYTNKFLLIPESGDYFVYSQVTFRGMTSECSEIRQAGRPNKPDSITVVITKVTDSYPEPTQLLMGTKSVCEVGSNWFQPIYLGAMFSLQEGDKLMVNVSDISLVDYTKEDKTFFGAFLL
Assay: cell-based or functional assay

B1: anti-TL1A antibody A219 (antibody, V domains shown)
VH: QVQLVQSGAEVKKPGASVKVSCKASGFDIQDTYMHWVKQRPGQGLEWMGRIDPASGHTKYDPKFQVRVTITRDTSTSTVYLELSSLRSEDTAVYYCARSGGLPDVWGQGTTVTVSS
VL: EIVLTQSPGTLSLSPGERATLSCRASSSVSYMYWYQQKPGQAPRPLIYATSNLASGIPDRFSGSGSGTDFTLTISRLEPEDFAVYYCQQWEGNPRTFGGGTKLEIK
IC50 of inhibition of IFN-γ release in monkey whole blood stimulated with immune complex, IL-12 and IL-18: 1.54 nM and 289 ng/mL
